The nature of this data set: label from the status in PepcDB records.

As to “MSKKLVLLIISILCFTALTGCWIVRSDLSGDIIIGDGHGGTSHSIIKYNPATNKFESVEPGLYYEVEYNDDKSKILCYRFLENSEVRRFEICEYDIKSKKFGEPIFIPGDSQKFKGSVKYVPNSDRISFVLDYELHIYDRSSGTLTKLFEVAFNSYSWDNTGKKLLYGDYDENIYIYDMESNEKRKILTGICPVYSNSNEYIAYIGIDQRLTVYNVNTGKKWRTVPVDDSARYIFSPDDKYILLGTEYADLMSFPHYTLYILDYKTGKKKRLFGGEGNVPSLDWK”, the protein production result was “failed”.
On to “MSKLIFSVLISVYYNESISYFKKSLDSILYQTLLPAEVVLVKDGILTDDLNCIVKEYSQKYPILKVISLPVNQGLGKALNEGLKHCSYDLVARMDTDDIAKPDRFEKQIRVFQEHPELDVVGAWIDEFEETTSNIISTRKLPEVHDDICQFAKKRNPENHPVIMFRKQAVLAAGGYQHFPLFEDYYLWIRMLQNGAKFYNIQESLLYFRFSPAMFKRRGGLKYVTTELRFQNQLRNLGFITSSEYLYNVFIRVITRMMPNTLRAILYKKALRK”, for which the protein production result is recorded as “failed”.
Regarding “MSKLSLIQQLKQQKLSVGILSANWLQLNEEVTTLLENQINVLHFDIADGQFSSLFTVGAIGIKYFPTHCFKDVHLMVRNQLEVAKAVVANGANLVTLQLEQYHDFALTIEWLAKQKTTYANQVYPVLIGACLCPETPISELEPYLDQIDVIQLLTLDPRNGTKYPSELILDRVIQVEKRLGNRRVEKLINIDGSMTLELAKYFKQGTHQIDWLVSGSALFSGELKTNLKVWKSSIM”, the protein production result is recorded as “not failed”.
With “MSKLSLKIGTYFLILALCIETIAFVSFYKSLSKMRIVEETDALLEKGNRYSKKIKSRERRDEYYKEMKHAEHNKNPKRPVYPEFDITNEAAHLVESESISNSDIAIIITDHNGKIISTSEPVTKDMQKQLTCKTETVPDGGLVVERNWKKSKFITTVSPLNTTKFQGKLYMLLKTSFLENMLLKLMNQFLIISVLTIILTTISVFVFSRVITEPLVKMKRATEKMSKLNKPIQLGIKRNDELGSLAKTIEDLSSELTYMKKERNEFLASVAHELLTPLTYMKGYAKVAKRDSLTKEEREEYLQIIEDETDSVTDLVQDLFMLVQLEQHQFVIKKQKVLLQPFLERMVEKTKTTLTNKQMQLHVYCKDDLEVCIDERRMEQVMLNLLHNAYQHSPENTAITIRVLMETDSFTISVQDEGEGIPEEDIPHIFDRFYRVDKSRTRATGGKGIGLAVAKEIVELHNGSILVTSQLGAGTNFIIELPFE”, the protein production result is listed as “failed”.
As for “MSKPEFIARQGRKPTGWLGHIVARVMARETRPENDRALSFLDLADGDSLIDIGCGHGETLFQADRIVRLSGSVGVDFSEVMLKRARARNRDAVWDTRMAFHCADTAALPFPDKRFGKALSVHTIYFWPNPAAHLAEAFRVLRRGGRFLFCYRSTADRRAVEEFPDTVYRFPSVQEVEEKLKLVGFLGPETTTEDIKGLEHHHHHH”, the protein production result was “failed”.
For the sequence “MSKPKIAIIVGSTRAARFADVPTQWIAKIAKSHADIDVEVVDLRDFPLPFFDEVASSAWVPSTNEVAQRWQKKVAEFDGFIFTAAEYNHGPTAVLKNAIDYAANEWNKKPAGFVGYGSVGGARAVEQLRLHAVELQMAPVKSAVHIAWGDFLAVRQGEKKLEDLDHLNQAASALVNDVAWWAKALKKARAADVVDEEIKAA”, the protein production entry is on record as “failed”.
On to “MSKRILFIVGSFSEGSFNRQLAKKAETIIGDRAQVSYLSYDRVPFFNQDLETSVHPEVAHAREEVQEADAIWIFSPVYNYAIPGPVKNLLDWLSRSLDLSDPTGPSVLQDKIVTVSSVANGASPEEVFEDYRSLLPFIRMHLVDQLTGVPINSEAWSTGILKVSAEKLAELSAQADALLSAVENLEHHHHHH”, for which the protein production entry is “not failed”.
With “MSKTERDKIKVEMEIDPHLSWQEKLAVEEQEKLSPRLVYEIIRRDGVEELSRPTSTLIFSGITAGLVMSFSFVFKAVIASYLPIDAVWTDLITNIGYTIGFLIAILGHLQLFTENTITTVIPLFKPFSLDKLKAVARLWSIVILTNIFGTALSSLFFLTTDLFSPEVDHALDEIAHHVASFTAWENFLKGVLSGLLIAALVWMLPSVNNKILLIFMITYLIGLGDFTHVVVGSVEVAYLVWQGQTSLSEYFFQFLVPTTLGNIIGGTGIFTLLIYGQVNQELEE”, the protein production entry is reported as “failed”.
To “MSKVDTIQEKLIPPIMKFANSKIITAIKDGVIITMPLTLVGSIFLLIANFPIKSWNSWMTAIFGPNWAVPLTQVSGSTFDIMAIAAVIGIAAQYSKNEGQDPVTAGLLGAVAFLIIMPSYSPINIGDKVGGIVMKHADKVQSVIPKAWTGGKGMIAALIIGVLTGYIYSWFLKRDIRIKLPESVPSGVSNAFSALIPGAVIITGSMLIFIFFNIVTGATALEWIYKVLQIPLQGITDSLGGAIAIPFVISFFWWFGVHGATLIGGVMNSIYQANTLANQDVFKAGHKLIASGAGKNAHIVCQQFQDNFVTLGGSGITLGLVAACFLFARSQRLKQLGKLALVPGCFNINEPVLFGLPIVLNPLMFIPFLICPLVSGILTYFAIYTGLVPCFTAVQAIWTTPPVLSGLIVAGWRGAVLQLIIIAIAAIVYFPFFKSLDKQYYQEEISGEAE” belongs “failed”; to “MSKVNQQDIDKLIELVGGRGNIATVSHCITRLRFVLNDPAIARPKEIEQLRMVKGCFTNAGQFQVVIGTEVGDYYKALLATTGQTSADKEQVKQA”, “not failed”.
As to “MSLALLLGYELPLTGANAAYGRVFQEAARLQLDRFNAAGGVGGRPVDILYADSRDDADQARTIARAFVDDPRVVGVLGDFSSTVSMAAGSIYGKEGMPQLSPTAAHPDYIKISPWQFRAITTPAFEGPNNAAWMIGDGFTSVAVIGVTTDWGLSSAQAFRKAFELRGGAVVVNEEVPPGNRRFDDVIDEIEDEAPQAIYLAMAYEDAAPFLRALRARGSALPVYGSSALYSPKFIDLGGPAVEGVRLATAFVLGASDPVVVEFVSAYETLYGAIPTLFAAHGYDAVGIMLAAVGRAGPEVTRESLRDALAATDRYAGVTGITRFDPETRETTKILTRLVVREGDFRVIDREGHHHHHH”, the protein production result is on record as “not failed”.
As for “MSLAMQDFRPGVYRHYKGDHYLALGLARADETDEVVVVYTRLYARAGLPMSTRLLRIWNETVDTGAGPQPRFAYVGHVTPEQGEGHHHHHH”, the protein production result is on record as “not failed”.
To “MSLAPRPRILICEDDPDIARLLNLMLEKGGFDSDMVHSAAQALEQVARRPYAAMTVDLNLPDQDGVSLIRALRRDSRTRDLAIVVVSANAREGELEFNSQPLAVSTWLEKPIDENLLILSLHRAIDNMAEGKEGHHHHHH” belongs “not failed”; to “MSLATQQLGIIGLFVPTFFGSYYGTILKQTDLELRAVHRHVVVATGCGESTPREQALEAVRFLIGRDCDGVVVISHDLHDEDLDELHRMHPKMVFLNRAFDALPDASFCPDHRRGGELAAATLIEHGHRKLAVISGPFTASDNVERLDGFFDELARHGIARDSVPLIESDFSPEGGYAATCQLLESKAPFTGLFCANDTMAVSALARFQQLGISVPGDVSVIGYDDDYSAAYAAPALTSVHIPTAELTQNAVRWLINQCYGTKWEIFREFPVTVSMRASVAREGHHHHHH”, “not failed”; to “MSLAWLISEFASVGDVTVRALRYYDKINLLKPSDYTEGGHRLYTKDDLYVLQQIQSFKHLGFSLGEIQNIILQRDIETEVFLRQMHFQREVLLAEQERIAKVLSHMDEMTKKFQKEERVNVALFSSFLQTFIWEKENKEGHHHHHH”, “not failed”.
As for “MSLDFRSADFLRTHISDTMAFYHPRCIDSAGGFFHYFRDDGSIYNATHRHLVSSTRFVFNYAMAYLQFGTAEYLDAVHHGLSYVRDVHRNPATGGYAWTLCDDRVEDDTNHCYGLAFVMLAYSCGLKVGIKQAREWMDETWCLLERHFWDAEYGLYKDEADAQWNFTRYRGQNANMHMCEAMLAAYEASGEQRYLERALVLADRITRRQAAKADGLVWEHYDMRWEVDWDYNRDNPKHLFRPWGFQPGHQTEWAKLLLILDRYIEVEWLVPVARSLFDVAVARSWDAVRGGLCYGFAPDGTICDDDKYFWVQAESLAAAALLATRSGDERYWQWYDRLWAYAWQHMVDHRYGAWYRLLDGDNRKYNDEKSPAGKTDYHTMGACHEVLNVVWTKSEGHHHHHH”, the protein production entry is “not failed”.
For “MSLDIQSLDIQCEELSDARWAELLPLLQQCQVVRLDDCGLTEARCKDISSALRVNPALAELNLRSNELGDVGVHCVLQGLQTPSCKIQKLSLQNCCLTGAGCGVLSSTLRTLPTLQELHLSDNLLGDAGLQLLCEGLLDPQCRLEKLQLEYCSLSAASCEPLASVLRAKPDFKELTVSNNDINEAGVRVLCQGLKDSPCQLEALKLESCGVTSDNCRDLCGIVASKASLRELALGSNKLGDVGMAELCPGLLHPSSRLRTLWIWECGITAKGCGDLCRVLRAKESLKELSLAGNELGDEGARLLCETLLEPGCQLESLWVKSCSFTAACCSHFSSVLAQNRFLLELQISNNRLEDAGVRELCQGLGQPGSVLRVLWLADCDVSDSSCSSLAATLLANHSLRELDLSNNCLGDAGILQLVESVRQPGCLLEQLVLYDIYWSEEMEDRLQALEKDKPSLRVIS”, the protein production entry is “not failed”.
“MSLDKVLVGYWHNWKSTGKDGYKGGSSADFNLSSTQEGYNVINVSFMKTPEGQTLPTFKPYNKTDTEFRAEISKLNAEGKSVLIALGGADAHIELKKSQESDFVNEIIRLVDTYGFDGLDIDLEQAAIEAADNQTVIPSALKKVKDHYRKDGKNFMITMAPEFPYLTSSGKYAPYINNLDSYYDFINPQYYNQGGDGFWDSDLNMWISQSNDEKKEDFLYGLTQRLVTGTDGFIKIPASKFVIGLPSNNDAAATGYVKDPNAVKNALNRLKASGNEIKGLMTWSVNWDAGTNSNGEKYNNTFVNTYAPMLFNNEGHHHHHH”: the protein production result is “not failed”.
“MSLDLSLNNLYSISTVELIQAFANTPASVTSLNLSGNSLGFKNSDELVQILAAIPANVTSLNLSGNFLSYKSSDELVKTLAAIPFTITVLDLGWNDFSSKSSSEFKQAFSNLPASITSLNLRGNDLGIKSSDELIQILAAIPANVNSLNLRGNNLASKNCAELAKFLASIPASVTSLDLSANLLGLKLEHHHHHH”: the protein production result is “failed”.
For the sequence “MSLDMSPVQGKLDGRIRAQNPEEFLERLSQEYHFQWFVYNDTLYVSPSSEHTSARIEVSPDAVDDLQTALTDVGLLDKRFGWGSLPDEGVVLVRGPAKYVEFVRDYSKKVEKPDEKADKQDVVVLPLKYANAADRTIRYRDQQLVVAGVASILQELLESRSRGESIDSVNLLPGQGSSVANSTGVAAAGLPYNLGSNGIDTGALQQGIDRVLNFNSKKTAKGHASGKANIRVSADVRNNSVLIYDLPERKAMYQKLVKELDVPRNLIEIDAVILDIDRNELAELSSRWNFNAGSVGGGANLFDAGTSSTLFLQNASKFSAELHALEGNGSASVIGNPSILTLENQPAVIDLSRTEYLTATSERAADILPITAGTSLQVIPRSLDNDGKPQVQMIVDIEDGQIDVSTINDTQPSVRRGNVSTQAVIAEHGSLVIGGFHGLEANDRIHKIPLLGDIPYIGKLLFQSRSRELSQRERLFILTPRLIGDQVNPARYVQNGNPHDVDDQMKKIKERRDGGELPTRGDIQKVFTQMIDGAAPEGLRAGQTLPFETDSLCDPGEGLTLDGQRSQWFVKKDWGVAVVVARNNTDKPVRIDESRCGGRWVIGVAAWPHAWLQPGEESEVYIAVRQPQISKMAKESRPSLLRGAKP”, the protein production result is listed as “failed”.

These data come from a protein production outcome set (Wang et al. 2014).
